The target of assay [1] is ERK substrate (Cdc25C substrate sequence with second phosphorylation site, V-3S). The assay can be described thus: cell-based or functional assay.
The target in assay [2] is SmBiT(ΔC3) (NanoBiT small fragment truncated by 3 amino acids at the C-terminus). Put plainly: cell-based or functional assay.

In turn, “WW phospho-binding domain (proline-directed WW phospho-binding domain from Pin1) (from UniProt Q13526 1-54)” had an induction of luminescence (ΔC3 V-3S) in assay [1] of 8.8 fold. Regarding “WW phospho-binding domain with F25A mutation (from UniProt Q13526 1-54)”, the induction of luminescence by Vx-11e (bKiMBI) in assay [1] was > 10 fold. In the case of “LgBiT (NanoBiT large fragment of NanoLuc), ΔN2 (enzyme)”, in assay [2], the response (luminescence induction by ERK inhibition) of the reporter with truncated SmBiT is 300%.

The values are drawn from US20260077065A1, “Compositions and Methods for Assessing Kinase Activity” (The Board of Trustees of the Leland Stanford Junior …, priority 2022, published 2026).
